Earlier results on two substances are cited in publication PMC12462375.

One data set addresses CD47 (Homo sapiens) (UniProt Q08722).
For a further data set, the target named is basigin (Homo sapiens) (UniProt P35613).
Chain of UniProt P35613 (P35613 22-325): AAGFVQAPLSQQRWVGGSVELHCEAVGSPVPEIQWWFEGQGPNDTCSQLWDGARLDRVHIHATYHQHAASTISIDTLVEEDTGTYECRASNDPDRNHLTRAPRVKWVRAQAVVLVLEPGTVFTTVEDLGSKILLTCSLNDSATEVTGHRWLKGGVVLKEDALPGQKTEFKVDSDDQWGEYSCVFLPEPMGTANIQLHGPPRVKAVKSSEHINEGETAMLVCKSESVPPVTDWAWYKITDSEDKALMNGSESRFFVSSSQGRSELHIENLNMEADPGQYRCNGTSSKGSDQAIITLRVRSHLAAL

SIRPα (PDB 4CMM) (from UniProt P78324): the Kd in the data set with CD47 (Homo sapiens) is 740 nM.
Turning to PfRH5 (from UniProt Q8IFM5), the Kd with basigin (Homo sapiens) was 1100 nM.

Usually Kd stands for a measure of binding affinity in units of concentration.
